The labels stand for the following.
T1: recombinant Fc fusion protein composed of the Sushi domain 1 and 2 of human CD46 (human, UniProt P15529 35-159)
T1 construct: domain: Sushi domain 1 and 2; Produced in HEK293 cells, purified by protein A; also called CD46-Fc fusion; recombinant CD46-Fc fusion protein; not shown: Fc part
T1 sequence (looked up): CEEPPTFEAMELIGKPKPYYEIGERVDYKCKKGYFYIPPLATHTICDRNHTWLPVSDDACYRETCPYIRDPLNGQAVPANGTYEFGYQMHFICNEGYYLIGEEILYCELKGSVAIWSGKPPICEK

B1: UA8kappa (antibody, V domains shown)
VH: EVQLVESGGGVVQPGRSLRLSCAASGFTFSSFGMHWVRRAPGKGLEWVAVISYDGSNQYYADSVKGRFTISRDNSKNTLYLQMNSLRAEDTAVYYCGSRPGGGYASGSTVAYWGQGTLVTVSS
VL: NIQMTQSPSSLSASVGDRVTITCRAGQPISTYVNWYQHKPGKAPKLLIYGASNLQSGVPSRFSGGGSATDFTLTISSLQPEDFATYYCQQSYSSLLTFGDGTKVEIK
notes: Human scFv from phage/yeast display, converted into full human IgG1; also called UASkappa
B2: 3G7RY (aka 3G8) (antibody, V domains shown)
VH: EVQLVESGGGLVQPGGSLRLSCAASGFTFSDYYMSWIRQAPGKGLEWVSYISSSGSTIYYADSVKGRFTISRDNSKNTLYLQMNSLRAEDTAVYYCARDYGRIAAAGRRYWGQGTLVTVSS
VL: QSALTQPPSASATPGQRVTISCSGRTSNIGSNHVYWYQQLPGTAPKLLIYRNNQRPSGVPDRFSGSKSGTSASLAISGLRSEDEADYYCATWDDSLSGEVFGGGTKLTVL
notes: Human scFv from phage/yeast display, converted into full human IgG1; elsewhere 3G8 is 3G7RY
B3: 3G7NY (antibody, V domains shown)
VH: B2 VH with R109N
VL: DIVMTQSPLSLPVTPGEPASISCRSSQSLLHSNGYDYLDWYLQKPGQSPQLLIYLGSNRASGVPDRFSGSGSGTDFTLKISRVETEDVGIYYCMQGLQTPSFGQGTKLEIK
notes: Human scFv from phage/yeast display, converted into full human IgG1
B4: YS1 (antibody, V domains shown)
VH: B2 VH with R109H
VL: SSELTQDPAVSVALGQTVRITCQGDTLSTYYANWYQQKPGQAPVLVIYGKNNRPSGIPDRFSGSSSGNTASLTITGAQAEDEADYYCHSRDISGNYLFASGTKLTVL
notes: as for B3
B5: YS6 (antibody, V domains shown)
VH: B2 VH with E1Q, V5Q, L11V, Q13R, R109H
VL: SSELTQDPAVSVALGQTVRITCQGDSLRSYYASWYQQKPGQAPVLVIYGKNNRPSGIPDRFSGSSSGNTASLTITGAQAEDEADYYCNSRDSSGTHLEVFGGGTKVTVL
notes: as for B3
B6: 3G7HY (antibody, V domains shown)
VH: B2 VH with R109H
VL: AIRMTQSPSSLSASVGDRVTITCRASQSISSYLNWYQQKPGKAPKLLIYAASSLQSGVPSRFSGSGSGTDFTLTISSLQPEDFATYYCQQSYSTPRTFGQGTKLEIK
notes: as for B3
B7: 3G7 (antibody, V domains shown)
VH: B2 VH with E1Q, V5Q, L11V, Q13R, R109H
VL: B5 VL with L45P, G94S, L97R, E98G, V106L
notes: as for B3
B8: YS11 (antibody, V domains shown)
VH: QVQLVESGGGLVQPGGSLGLSCAASGFTFSNYWMSWVRQAPGKGLEWVANVRQDGGQKYYVDSVKGRFTISRDNAKNSLYLQMNSLRTEDTAVYFCVSQRNSGEHDYWGQGTLVTVSS
VL: SELTQDPAVSVALGQTVRITCQGDSLRSYYASWYQQKPGQAPVLVIYGENSRPSGIPDRFSGSSSGNTASLTITGAQAEDEADYYCNSWDSSGNHVVFGGGTKLTVL
notes: as for B3
B9: YS12 (antibody, V domains shown)
VH: QVQLVESGGGVVQPGRSLRLSCAASGFTFSTYGMHWVRQAPGKGLEWLSFISYDGDEKYYADSVKGRFTISRDNSKNTLYLQMNSLRAEDTAVYWCAKASGYGMGILDYWGQGTLVTVSS
VL: SSELTQDPAVSVALGQTVRITCQGDSLRSYYVSWFQQKPGQAPVFVMYGQNNRPSGISERFSGSSSGNTASLIITGAQAEDEADYYCHSRDSSGTHLRVFGGGTKLTVL
notes: Human scFv from phage/yeast display, converted into full human IgG1; also called YS12 IgG1
B10: SB1HGNY (antibody, V domains shown)
VH: QVQLQQSGGGVVQPGRSLRLSCAASGFTFSSYAMHWVRQAPGKGLEWVAFIRSDGSKKYYADSVKGRFTISRDNSKNTLYLQMNSLRAEDTAVYYCARHGNYFDSWGQGTLVTVSS
VL: DIQMTQSPSFLSASVGDRVTITCRASQGISSYLAWYQQKPGKAPKLLIYAASTLQSGVPSSFSGSGSGTEFTLTISSLQPEDFATYYCQQLASYPLTFGGGTKVDIK
notes: as for B3
B11: YS5F (antibody, V domains shown)
VH: QVQLVQSGGGVVQPGRSLRLACAASGFTVNNYAMHWVRQAPGKGLEWVAVISYDGNNKYYADSVKGRFTISRDNSKNTLYLQMNSLRAEDTAVYYCAKGGGYFDLWGRGTLVTVSS
VL: QSVLTQPPSVSGAPGQRVTISCTGSSSNIGAGYDVHWYQQLPGTAPKLLIYGNNNRPSGVPDRFSGSKSGTSASLAITGLQAEDEADYYCSSYTSGTWLFGGGTKLTVL
notes: as for B3
B12: SB2 (antibody, V domains shown)
VH: EVQLVESGGGLVKPGGSLRLSCAASGFTFSDYYMSWIRQAPGKGLEWVSYISSSGSSIYYADSVKGRFTISRDNAKNSLYLQMNSLKAEDTAVYYCARDITDVVGVSFDYWGQGTLVTVSS
VL: DIQLTQSPSSLSASVGDRVTITCRASRSISTYLSWYQQKPGKAPKLLIYDASRLQNGVPSRFSGSGSDTDFTLTISSLQPEDFATYFCQQSYNPPWTFGQGTKLEIK
notes: as for B3
B13: YS3 (antibody, V domains shown)
VH: QVQLQESGGGLVQPGGSLRLSCAASGFTFSSYWMSWVRQAPGKGLEWVADIKQDGSEKYYVDSVKGRFTISGDNAKNSLYLQMNSLRAEDTAVYYCAKDVGSTAINYVRAYTWFDPWGQGTLVTVSS
VL: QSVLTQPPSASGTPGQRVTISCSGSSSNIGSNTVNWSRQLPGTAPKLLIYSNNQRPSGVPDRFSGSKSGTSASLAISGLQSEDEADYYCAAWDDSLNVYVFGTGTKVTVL
notes: as for B3
B14: YS8 (antibody, V domains shown)
VH: QVQLQESGGGVVQPGRSLRLSCAASGFTFSSYGMHWVRQAPGKGLEWVAVISYDGSNKYYADSVKGRFTISRDNSKNTLYLQMNSLRAEDTAVYYCAKVMGLAAAGLDAFDIWGQGTTVTVSS
VL: NFMLTQPASLSGSPGQSITISCTGTSSDVGGYNYVSWYQQHPGYAPKLMIYDVSNRPSGVSNRFSGSKSGNTASLTISGLQAEDEADYYCSSYTSSSTPWVFGGGTKLTVL
notes: as for B3
B15: 2C8 (antibody, V domains shown)
VH: B14 VH with Q1E, Q5V, V93E, T118L
VL: B14 VL with N1Q, F2S, M3A, L10V, Y44K, D87Y, T98D, K107Q
notes: as for B3
B16: YS7 (antibody, V domains shown)
VH: QVQLVQSGGGVVQPGRSLRLSCAASGFTFSSYAMHWVRQAPGKGLEWVAVISYDGSNKYYADSVKGRFTISRDTSTNTLYLQMNSLRADDTAVYYCGRESSGSPGVWGQGTTVTVSS
VL: SYVLTQDPAVSVALGQTVRITCQGDSLRSYYASWYQQKPGQAPVLVIYGKNNRPSGIPDRFSGSSSGNTASLTITGAQAEDEADYYCNSRDSSGNQFGGGTKLTVL
notes: as for B3
B17: YS4 (antibody, V domains shown)
VH: QVQLQESGGGLVQPGGSLRLSCAASGFTFSNYAMSWVRQAPGKGLEWVSTISGSGSSTFYVDSVKGRFTISRDNSKNTLYLQMNSLRAEDTAVYYCAQGLYSSGWANWFDPRGQGTLVTVSS
VL: KIVLTQSPSSLSASVGDTVTIACRASRDIRNDLAWYQQKPGKAPKLLIYGASSLQSGVPSRFSGSGSGTEFILTISSLQPEDFATYYCHRLNSYPLTFGGGTKVDIK
notes: as for B3
B18: YS9 (antibody, V domains shown)
VH: QVQLVESGGGLIQPGGSLRLSCAASGFTVSSNYMSWVRQAPGKGLEWVSVIYTDGSTYYADSVKGRFTISRDNSKNTLYLQMNSLRAEDTAIYYCARDRGTSGYDWAWFDLWGQGTLVTVSS
VL: SSELTQDPAVSVALGQTVRITCQGDSLRTYYASWYQQRPGQAPILVLYGKNNRPSGIPDRFSGSSSGNTASLTITGAQAEDEADYYCNSRDSSGNHVVFGGGTKLTVL
notes: as for B3
B19: YS10 (antibody, V domains shown)
VH: QVQLQESGGGLVQPGGSLRLSCAASGFTFSSYAMSWVRQAPGKGLEWVSAISGSGGSTYYADSVKGRFTISRDNSKNTLYMQMNSLRAEDTAVYYCAKDRYYYGSGKDAFDIWGRGTMVTVSS
VL: QSVLTQPASVSGSPGQSITISCTGTGSDVGSYNYVSWYQQNPGKAPKLMIYEVSNRPSGVSNRFSGSKSGNTASLTISGLQAEDEADYYCSSYTTSSTLVFGGGTKVTVL
notes: as for B3

Numbering of substitutions follows the chain as printed.

For this test, the target named is T1, recombinant Fc fusion protein composed …. Description: phage and yeast display selection and FACS screening with recombinant CD46-Fc fusion. From the text: To identify novel anti-human CD46 antibodies, a recombinant Fc fusion protein composed of the Sushi domain 1 and 2 of human CD46 was created. As complement elements bind predominantly to domain 3 and 4, the choice of domain 1 and 2 minimize selection of antibodies that could potently interfere with normal complement function. This CD46-Fc fusion was produced and purified from transfected HEK293 cells by protein A affinity chromatography. For human antibody selection, a 5×10⁹ member phagemid display library was created using cDNAs pooled from peripheral blood mononuclear cells of 426 healthy human donors, and the library was selected the recombinant CD46-Fc fusion protein. Following three rounds of selection, binding phagemid were screened by FACS and sequenced. In parallel, an alternatively strategy was employed that involve first selecting the library on live tumor cells followed by transferring the output from round 1 phagemid selection into a yeast surface display vector, and then FACS-based selection using low concentration ligands to enrich high affinity binders to the recombinant CD46-Fc fusion protein. The resulting antibodies bind with high affinity to both live tumor cells and the recombinant human CD46 protein.
Consider B1, for which the binding result was “binds”.
Take B2: the binding result is reported as “binds”.
In the case of B3 it was “binds”; in that of B4, “binds”; in that of B5, “binds”.
In the case of B6 it was “binds”; in that of B7, “binds”; in that of B8, “binds”.
The entry for B9 is “binds”.
For B10, the binding result is listed as “binds”.
The entry for B11 is “binds”; for B12 it is “binds”; for B13 it is “binds”.
In the case of B14 it was “binds”.
In the case of B15 it was “binds”; in that of B16, “binds”.
As for B17, the binding result is listed as “binds”.
In the case of B18 it was “binds”.
In the case of B19 it was “binds”.

These data come from patent publication US20170362330A1 (University of California, published 2017).
